Source: article PMC5056442

Biological target: BamE (E. coli) (UniProt P0A937)
Assay: SEC + native MS; purified BamABCDE; SDS-PAGE, gel filtration (Superdex200 10/300 GL, TBS with 0.05% DDM, 21 °C) and non-covalent nanoESI-MS named together for the molar ratio

Sequence of UniProt P0A937 (P0A937 20-113): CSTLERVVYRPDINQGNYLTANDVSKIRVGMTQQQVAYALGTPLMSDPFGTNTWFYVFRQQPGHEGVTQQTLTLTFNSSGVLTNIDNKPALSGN

- stoichiometry N: 1 molar ratio
Substance: BamB (from UniProt P77774 20-392) (natural protein)
